Results taken from patent US20150276760A1 (INSERM INSTITUT NATIONAL DE LA SANTE ET DE LA RECHERCHE …, published 2015).

Experiments:
Test in all cases: Flag/HA immunopurification of MAML1-F/H from SupT1 nuclear extracts, DMSO or GSI (500 nM, 8 hours), western blot (FIG. 2D)
PHF8 = molecular target: T1, PHF8 (human, UniProt Q9UPP1 1-1060, limits assumed)
T1 construct: also called endogenous PHF8; histone demethylase PHF8

BRG1 = molecular target: T2, BRG1 (human, UniProt P51532 1-1647)
T2 construct: also called endogenous BRG1; PBAF subunit BRG1

AF4p12 = molecular target: T3, AF4p12 (human, UniProt O94915 2-3013)
T3 construct: also called FRYL

LSD1 = LSD1 (human, UniProt O60341 1-852)
PB1 = molecular target: T4, PB1 (human, UniProt Q86U86 1-1689, limits assumed)
T4 construct: also called PBAF subunit PB1

T2 sequence (P51532 whole entry): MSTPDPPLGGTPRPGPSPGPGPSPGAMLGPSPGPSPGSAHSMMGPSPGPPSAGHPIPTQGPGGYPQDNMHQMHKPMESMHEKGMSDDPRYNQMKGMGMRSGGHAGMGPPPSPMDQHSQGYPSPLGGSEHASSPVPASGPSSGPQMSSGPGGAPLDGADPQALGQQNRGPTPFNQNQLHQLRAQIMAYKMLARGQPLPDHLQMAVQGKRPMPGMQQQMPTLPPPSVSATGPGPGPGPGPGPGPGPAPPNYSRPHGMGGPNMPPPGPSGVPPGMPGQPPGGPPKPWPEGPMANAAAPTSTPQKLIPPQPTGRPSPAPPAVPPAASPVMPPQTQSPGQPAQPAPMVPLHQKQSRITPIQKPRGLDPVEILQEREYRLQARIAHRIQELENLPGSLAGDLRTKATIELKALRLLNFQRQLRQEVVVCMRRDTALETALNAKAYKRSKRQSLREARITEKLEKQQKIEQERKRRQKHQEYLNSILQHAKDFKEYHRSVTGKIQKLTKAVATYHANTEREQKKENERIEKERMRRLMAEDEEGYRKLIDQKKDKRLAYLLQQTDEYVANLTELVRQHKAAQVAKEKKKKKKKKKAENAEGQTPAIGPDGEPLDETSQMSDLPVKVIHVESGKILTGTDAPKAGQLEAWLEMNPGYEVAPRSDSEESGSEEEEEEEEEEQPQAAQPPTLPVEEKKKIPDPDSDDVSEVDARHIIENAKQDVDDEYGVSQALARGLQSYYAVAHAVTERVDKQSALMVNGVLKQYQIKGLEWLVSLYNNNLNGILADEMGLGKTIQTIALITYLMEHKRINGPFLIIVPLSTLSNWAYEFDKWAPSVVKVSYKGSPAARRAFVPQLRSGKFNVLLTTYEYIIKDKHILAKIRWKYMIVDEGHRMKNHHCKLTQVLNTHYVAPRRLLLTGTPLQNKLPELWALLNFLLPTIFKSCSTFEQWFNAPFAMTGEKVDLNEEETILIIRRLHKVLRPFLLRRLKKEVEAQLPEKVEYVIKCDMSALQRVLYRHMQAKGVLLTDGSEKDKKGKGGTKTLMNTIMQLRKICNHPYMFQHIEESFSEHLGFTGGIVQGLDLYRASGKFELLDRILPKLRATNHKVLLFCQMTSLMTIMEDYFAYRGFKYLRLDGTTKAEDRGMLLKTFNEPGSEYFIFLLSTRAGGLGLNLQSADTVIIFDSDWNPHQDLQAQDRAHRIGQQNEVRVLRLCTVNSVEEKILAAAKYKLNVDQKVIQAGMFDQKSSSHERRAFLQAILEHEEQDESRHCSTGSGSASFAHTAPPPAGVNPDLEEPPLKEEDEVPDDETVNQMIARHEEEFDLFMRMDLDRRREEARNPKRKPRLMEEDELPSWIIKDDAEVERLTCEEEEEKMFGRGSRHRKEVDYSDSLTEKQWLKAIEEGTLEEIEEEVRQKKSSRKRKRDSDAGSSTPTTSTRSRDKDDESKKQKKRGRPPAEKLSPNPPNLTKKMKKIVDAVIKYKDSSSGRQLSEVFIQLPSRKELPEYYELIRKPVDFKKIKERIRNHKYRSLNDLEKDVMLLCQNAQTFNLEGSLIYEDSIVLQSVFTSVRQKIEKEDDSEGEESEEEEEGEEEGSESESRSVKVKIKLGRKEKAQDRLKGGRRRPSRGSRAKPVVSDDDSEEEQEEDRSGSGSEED
T3 sequence (O94915 2-3013 limits assumed): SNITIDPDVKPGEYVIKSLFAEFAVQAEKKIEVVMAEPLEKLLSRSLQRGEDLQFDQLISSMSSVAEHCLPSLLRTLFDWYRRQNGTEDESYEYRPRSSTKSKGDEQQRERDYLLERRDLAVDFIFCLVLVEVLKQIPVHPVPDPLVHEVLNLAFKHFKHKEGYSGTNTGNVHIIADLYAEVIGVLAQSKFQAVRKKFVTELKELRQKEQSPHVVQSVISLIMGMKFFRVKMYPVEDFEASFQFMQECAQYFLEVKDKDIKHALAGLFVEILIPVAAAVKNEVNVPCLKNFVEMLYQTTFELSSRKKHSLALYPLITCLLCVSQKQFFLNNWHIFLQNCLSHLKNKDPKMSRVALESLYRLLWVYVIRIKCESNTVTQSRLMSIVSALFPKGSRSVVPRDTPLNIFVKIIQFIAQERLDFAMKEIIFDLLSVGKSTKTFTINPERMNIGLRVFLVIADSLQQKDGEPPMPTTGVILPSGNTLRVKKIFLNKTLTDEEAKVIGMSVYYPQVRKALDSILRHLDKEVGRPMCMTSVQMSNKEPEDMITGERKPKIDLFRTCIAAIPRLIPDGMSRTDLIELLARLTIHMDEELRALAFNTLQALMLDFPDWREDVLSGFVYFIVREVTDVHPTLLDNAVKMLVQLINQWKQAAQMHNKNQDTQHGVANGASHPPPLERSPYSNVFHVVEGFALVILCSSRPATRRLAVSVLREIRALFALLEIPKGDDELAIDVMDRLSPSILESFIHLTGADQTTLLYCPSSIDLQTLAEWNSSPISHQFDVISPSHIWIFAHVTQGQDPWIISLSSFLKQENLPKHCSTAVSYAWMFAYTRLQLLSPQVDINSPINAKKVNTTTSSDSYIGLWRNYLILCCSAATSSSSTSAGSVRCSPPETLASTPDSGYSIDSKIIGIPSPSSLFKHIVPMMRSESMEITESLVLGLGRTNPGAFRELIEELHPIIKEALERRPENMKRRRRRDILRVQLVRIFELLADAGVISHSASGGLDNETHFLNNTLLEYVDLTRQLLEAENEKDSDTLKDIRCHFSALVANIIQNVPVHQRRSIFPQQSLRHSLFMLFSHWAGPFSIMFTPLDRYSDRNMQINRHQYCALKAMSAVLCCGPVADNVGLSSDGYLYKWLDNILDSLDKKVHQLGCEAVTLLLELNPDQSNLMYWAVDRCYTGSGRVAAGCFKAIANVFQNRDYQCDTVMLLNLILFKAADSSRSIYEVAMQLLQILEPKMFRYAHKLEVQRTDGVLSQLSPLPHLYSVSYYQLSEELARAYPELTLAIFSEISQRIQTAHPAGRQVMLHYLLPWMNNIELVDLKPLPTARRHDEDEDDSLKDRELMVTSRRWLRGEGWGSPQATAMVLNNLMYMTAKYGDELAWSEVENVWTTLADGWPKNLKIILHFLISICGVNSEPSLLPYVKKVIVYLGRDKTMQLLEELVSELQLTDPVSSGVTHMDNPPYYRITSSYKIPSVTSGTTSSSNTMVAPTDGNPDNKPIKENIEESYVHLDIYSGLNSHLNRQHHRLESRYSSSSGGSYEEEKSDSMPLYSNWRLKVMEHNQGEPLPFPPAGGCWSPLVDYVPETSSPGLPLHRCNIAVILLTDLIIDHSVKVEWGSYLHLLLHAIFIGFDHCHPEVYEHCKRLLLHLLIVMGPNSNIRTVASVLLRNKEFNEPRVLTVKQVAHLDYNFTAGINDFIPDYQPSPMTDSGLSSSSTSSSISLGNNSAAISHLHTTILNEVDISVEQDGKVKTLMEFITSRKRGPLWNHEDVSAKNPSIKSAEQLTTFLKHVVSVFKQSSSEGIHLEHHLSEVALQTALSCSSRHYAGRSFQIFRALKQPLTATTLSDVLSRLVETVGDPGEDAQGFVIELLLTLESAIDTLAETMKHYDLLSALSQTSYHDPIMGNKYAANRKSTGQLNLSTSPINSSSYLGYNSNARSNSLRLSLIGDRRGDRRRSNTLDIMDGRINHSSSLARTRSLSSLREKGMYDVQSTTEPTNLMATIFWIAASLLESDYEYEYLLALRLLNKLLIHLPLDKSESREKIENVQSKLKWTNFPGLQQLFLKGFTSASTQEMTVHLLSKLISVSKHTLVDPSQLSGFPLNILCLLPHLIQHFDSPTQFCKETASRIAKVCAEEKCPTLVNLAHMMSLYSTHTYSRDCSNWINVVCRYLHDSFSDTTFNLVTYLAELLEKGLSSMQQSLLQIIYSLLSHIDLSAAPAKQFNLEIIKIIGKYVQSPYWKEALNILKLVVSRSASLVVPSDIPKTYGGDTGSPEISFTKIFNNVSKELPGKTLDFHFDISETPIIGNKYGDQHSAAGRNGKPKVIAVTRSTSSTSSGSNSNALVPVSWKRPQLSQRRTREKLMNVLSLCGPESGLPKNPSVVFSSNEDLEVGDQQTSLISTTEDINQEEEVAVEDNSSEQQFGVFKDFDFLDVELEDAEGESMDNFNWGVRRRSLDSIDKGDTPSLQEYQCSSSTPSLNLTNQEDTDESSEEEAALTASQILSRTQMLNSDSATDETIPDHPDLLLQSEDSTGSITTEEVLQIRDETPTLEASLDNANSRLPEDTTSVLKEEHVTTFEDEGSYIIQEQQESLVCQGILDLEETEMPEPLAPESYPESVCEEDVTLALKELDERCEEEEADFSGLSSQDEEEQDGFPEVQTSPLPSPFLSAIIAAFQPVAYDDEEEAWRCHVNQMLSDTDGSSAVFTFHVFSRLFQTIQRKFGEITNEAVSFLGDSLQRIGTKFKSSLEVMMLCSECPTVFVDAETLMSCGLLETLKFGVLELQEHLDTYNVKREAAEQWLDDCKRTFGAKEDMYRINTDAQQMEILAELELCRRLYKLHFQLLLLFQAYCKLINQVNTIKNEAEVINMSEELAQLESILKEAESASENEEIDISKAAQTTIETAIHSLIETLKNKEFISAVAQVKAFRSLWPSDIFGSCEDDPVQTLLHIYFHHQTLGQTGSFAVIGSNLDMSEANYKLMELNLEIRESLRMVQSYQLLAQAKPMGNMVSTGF

- binding result (PHF8): binds
- binding result (BRG1): binds
- binding result (AF4p12): binds
- binding result (LSD1): binds
- binding result (PB1): binds
B1: Flag and HA-tagged MAML1 (MAML1-F/H) (other, human, UniProt Q92585 1-1016, looked up)
chain: MVLPTCPMAEFALPRHSAVMERLRRRIELCRRHHSTCEARYEAVSPERLELERQHTFALHQRCIQAKAKRAGKHRQPPAATAPAPAAPAPRLDAADGPEHGRPATHLHDTVKRNLDSATSPQNGDQQNGYGDLFPGHKKTRREAPLGVAISSNGLPPASPLGQSDKPSGADALQSSGKHSLGLDSLNKKRLADSSLHLNGGSNPSESFPLSLNKELKQEPVEDLPCMITGTVGSISQSNLMPDLNLNEQEWKELIEELNRSVPDEDMKDLFNEDFEEKKDPESSGSATQTPLAQDINIKTEFSPAAFEQEQLGSPQVRAGSAGQTFLGPSSAPVSTDSPSLGGSQTLFHTSGQPRADNPSPNLMPASAQAQNAQRALAGVVLPSQGPGGASELSSAHQLQQIAAKQKREQMLQNPQQATPAPAPGQMSTWQQTGPSHSSLDVPYPMEKPASPSSYKQDFTNSKLLMMPSVNKSSPRPGGPYLQPSHVNLLSHQPPSNLNQNSANNQGSVLDYGNTKPLSHYKADCGQGSPGSGQSKPALMAYLPQQLSHISHEQNSLFLMKPKPGNMPFRSLVPPGQEQNPSSVPVQAQATSVGTQPPAVSVASSHNSSPYLSSQQQAAVMKQHQLLLDQQKQREQQQKHLQQQQFLQRQQHLLAEQEKQQFQRHLTRPPPQYQDPTQGSFPQQVGQFTGSSAAVPGMNTLGPSNSSCPRVFPQAGNLMPMGPGHASVSSLPTNSGQQDRGVAQFPGSQNMPQSSLYGMASGITQIVAQPPPQATNGHAHIPRQTNVGQNTSVSAAYGQNSLGSSGLSQQHNKGTLNPGLTKPPVPRVSPAMGGQNSSWQHQGMPNLSGQTPGNSNVSPFTAASSFHMQQQAHLKMSSPQFSQAVPNRPMAPMSSAAAVGSLLPPVSAQQRTSAPAPAPPPTAPQQGLPGLSPAGPELGAFSQSPASQMGGRAGLHCTQAYPVRTAGQELPFAYSGQPGGSGLSSVAGHTDLIDSLLKNRTSEEWMSDLDDLLGSQ
notes: Stably expressed in SupT1; also called FLAG-HA tagged MAML1; not shown: Flag and HA tags (pOZ vector)
